# Experimental data taken from PMC11496930 (2024).
# Where two headings read alike, the source gives them in different places.
# Legend:
# ADI-19425 Fab [1] = target: T1, ADI-19425 Fab (human, UniProt P0DOY2 1-106); test: BLI
# ADI-19425 Fab [2] = target: T1, ADI-19425 Fab; test: BLI; remark: listed apart in the source
koff (ADI-19425 Fab [1]) [s⁻¹],koff (ADI-19425 Fab [2]) [s⁻¹],Binder
0.000115,–,"1D3 recombinant IgG (human constant regions) (antibody, V domains shown) VH: QVQIQQSGAELMRPGASVKLSCKATGYTFTGYWIEWVKQRPGHGLEWIGEILSGRGTTNYNEKFKGKATFTADTYSNTAYMQLSSLTTGDSAIYYCARGGFLYGDGPFDYWGQGTTLTVSS VL: DILLTQSPAILSVSPGERVSFSCRASQNIDTHIHWYQQRTNGSPRLLIKYASESISGIPSRFSGSGSGTDFTLTINSVESEDIADYYCQQSNSWPFTFGSGTKLEIK"
–,0.000442,"2C1 recombinant IgG (human constant regions) (antibody, V domains shown) VH: QVQLQQSGAELVRPGASVTLSCKASGYIFTDYEIHWLKQTPVHGLEWIGTSDPETGGFAYTQKFKGKAILTADKSSSTAYMELRSLTSEDSAVYYCTRRPYYGSGAWFAYWGQGTLVTVSA VL: DIVMTQSHKFMSTSVGDRVSITCKANHDVNIAVAWYQQKPGQSPKLLIYSASYRYTGVPDRFTGSGSGTDFTFTISSVQAEDLAVYYCQQHYDTPRTFGGGTKLEIK"
